Results on one molecule are retold here after patent publication US20240368223A1.

Broadly, the Kd is the constant that tells how readily two partners part at equilibrium. A lower Kd goes with a tighter complex.

Experiment [1] addresses human IgG (Chugai Pharmaceutical Co., Ltd.) (human). Kind of experiment: SPR, BIAcore T200, IgG immobilised; 1:1 binding fit.
Experiment [2] has the same target. In words: SPR, BIAcore T200, IgG immobilised; equilibrium value. In general terms: Surface plasmon resonance follows binding to a sensor surface in real time, without labels.

Bridges are numbered along the chain shown (N, C = ends). Primed or numbered codes have the meaning given here. The star is where a group is joined. Biotin = O=C1N[C@H]2[C@H](CS[C@H]2CCCCC(=O)*)N1; PEG4′ = amino-PEG4 spacer

B1: Type I IgG-binding peptide …-NH2 (peptide)
peptide: {Biotin-PEG4′}-GPDCAYHRGELVWCTFH-NH2
modifications: disulfide 4-14
Consider B1, for which the equilibrium dissociation constant (Kd) in experiment [1] amounted to 9.1 nM; in experiment [2], 10 nM.
